According to publication PMC2847151 (2009):

Key:
Abl SH3 = Abl SH3 (Homo sapiens, UniProt P00519); test: fluorescence titration
Lck SH3 = target: T1, Lck SH3 (Homo sapiens, UniProt P06239); test: fluorescence titration
T1 chain: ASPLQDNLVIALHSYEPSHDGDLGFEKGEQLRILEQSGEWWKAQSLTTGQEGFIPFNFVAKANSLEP

Sequence of Abl SH3 (P00519 58-124): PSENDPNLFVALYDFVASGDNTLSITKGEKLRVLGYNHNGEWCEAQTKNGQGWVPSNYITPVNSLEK

Ac-QLPPGPPGAPKPPPAS-NH2 [MED25]
Kd (Abl SH3): 2.37 µM
Kd (Lck SH3): 33.5 µM
